Assay results as given in US6855515B1, “Autoantigenic fragments, methods and assays” (Merck & Co., Inc., priority 1998, dated 2005).

B1: Isoleucyl tRNA synthetase (O.J.): autoantigen targeted in autoimmune myositis (protein)
chain: MLQQVPENINFPAEEEKILEFWTEFNCFQECLKQSKHKPKFTFYDGPPFATGLPHYGHILAGTIKDIVTRYAHQSGFHVDRRFGWDCHGLPVEYEIDKTLGIRGPEDVAKMGITEYNNQCRAIVMRYSAEWKSTVSRLGRWIDFDNDYKTLYPQFMESVWWVFKQLYDKGLVYRGVKVMPFSTACNTPLSNFESHQNYKDVQDPSVFVTFPLEEDETVSLVAWTTTPWTLPSNLAVCVNPEMQYVKIKDVARGRLLILMEARLSALYKLESDYEILERFPGAYLKGKKYRPLFDYFLKCKENGAFTVLVDNYVKEEEGTGVVHQAPYFGAEDYRVCMDFNIIRKDSLPVCPVDASGCFTTEVTDFAGQYVKDADKSIIRTLKEQGRLLVATTFTHSYPFCWRSDTPLIYKAVPSWFVRVENMVDQLLRNNDLCYWVPELVREKRFGNWLKDARDWTISRNRYWGTPIPLWVSDDFEEVVCIGSVAELEELSGAKISDLHRESVDHLTIPSRCGKGSLHRISEVFDCWFESGSMPYAQVHYPFENKREFEDAFPADFIAEGIDQTRGWFYTLLVLATALFGQPPFKNVIVNGLVLASDGQKMSKRKKNYPDPVSIIQKYGADALRLYLINSPVVRAENLRFKEEGVRDVLKDVLLPWYNAYRFLIQNVLRLQKEEEIEFLYNENTVRESPNITDRWILSFMQSLIGFFETEMAAYRLYTVVPRLVKFVDILTNWYVRMNRRRLKGENGMEDCVMALETLFSVLLSLCRLMAPYTPFLTELMYQNLKVLIDPVSVQDKDTLSIHYLMLPRVREELIDKKTESAVSQMQSVIELGRVIRDRKTIPIKYPLKEIVVIHQDPEALKDIKSLEKYIIEELNVRKVTLSTDKNKYGIRLRAEPDHMVLGKRLKGAFKAVMTSIKQLSSEELEQFQKTGTIVVEGHELHDEDIRLMYTFDQATGGTAQFEAHSDAQALVLLDVTPDQSMVDEGMAREVINRIQKLRKKCNLVPTDEITVYYKAKSEGTYLNSVIESHTEFIFTTIKAPLKPYPVSPSDKVLIQEKTQLKGSELEITLTRGSSLPGPACAYVNLNICANGSEQGGVLLLENPKGDNRLDLLKLKSVVTSIFGVKNTELAVFHDETEIQNQTDLLSLSGKTLCVTAGSAPSLINSSSTLLCQYINLQLLNAKPQECLMGTVGTLLLENPLGQNGLTHQGLLYEAAKVFGLRSRKLKLFLNETQTQEITEDIPVKTLNMKTVYVSVLPTTADF
B2: Alanyl tRNA synthetase (PL-12): autoantigen targeted in autoimmune myositis (protein)
chain: MDSTLTASEIRQRFIDFFKRNEHTYVHSSATIPLDDPTLLFANAGMNQFKPIFLNTIDPSHPMAKLSRAANTQKCIRAGGKHNDLDDVGKDVYHHTFFEMLGSWSFGDYFKELACKMALELLTQEFGIPIERLYVTYFGGDEAAGLEADLECKQIWQNLGLDDTKILPGNMKDNFWEMGDTGPCGPCSEIHYDRIGGRDAAHLVNQDDPNVLEIWNLVFIQYNREADGILKPLPKKSIDTGMGLERLVSVLQNKMSNYDTDLFVPYFEAIQKGTGARPYTGKVGAEDADGIDMAYRVLADHARTITVALADGGRPDNTGRGYVLRRILRRAVRYAHEKLNASRGFFATLVDVVVQSLGDAFPELKKDPDMVKDIINEEEVQFLKTLSRGRRILDRKIQSLGDSKTIPGDTAWLLYDTYGFPVDLTGLIAEEKGLVVDMDGFEEERKLAQLKSQGKGAGGEDLIMLDIYAIEELRARGLEVTDDSPKYNYHLDSSGSYVFENTVATVMALRREKMFVEEVSTGQECGVVLDKTCFYAEQGGQIYDEGYLVKVDDSSEDKTEFTVKNAQVRGGYVLHIGTIYGDLKVGDQVWLFIDEPRRRPIMSNHTATHILNFALRSVLGEADQKGSLVAPDRLRFDFTAKGAMSTQQIKKAEEIANEMIEAAKAVYTQDCPLAAAKAIQGLRAVFDETYPDPVRVVSIGVPVSELLDDPSGPAGSLTSVEFCGGTHLRNSSHAGAFVIVTEEAIAKGIRRIVAVTGAEAQKALRKAESLKKCLSVMEAKVKAQTAPNKDVQREIADLGEALATAVIPQWQKDELRETLKSLKKVMDDLDRASKADVQKRVLEKTKQFIDSNPNQPLVILEMESGASAKALNEALKLFKMHSPQTSAMLFTVDNEAGKITCLCQVPQNAANRGLKASEWVQQVSGLMDGKGGGKDVSAQATGKNVGCLQEALQLATSFAQLRLGDVKN
B3: glycyl tRNA synthetase: autoantigen in autoimmune myositis (protein)
chain: MDGAGAEEVLAPLRLAVRQQGDLVRKLKEDKAPQVDVDKAVAELKARKRVLEAKELALQPKDDIVDRAKMEDTLKRRFFYDQAFAIYGGVSGLYDFGPVGCALKNNIIQTWRQHFIQEEQILEIDCTMLTPEPVLKTSGHVDKFADFMVKDVKNGECFRADHLLKAHLQKLMSDKKCSVEKKSEMESVLAQLDNYGQQELADLFVNYNVKSPITGNDLSPPVSFNLMFKTFIGPGGNMPGYLRPETAQGIFLNFKRLLEFNQGKLPFAAAQIGNSFRNEISPRSGLIRVREFTMAEIEHFVDPSEKDHPKFQNVADLHLYLYSAKAQVSGQSARKMRLGDAVEQGVINNTVLGYFIGRIYLYLTKVGISPDKLRFRQHMENEMAHYACDCWDAESKTSYGWIEIVGCADRSCYDLSCHARATKVPLVAEKPLKEPKTVNVVQFEPSKGAIGKAYKKDAKLVMEYLAICDECYITEMEMLLNEKGEFTIETEGKTFQLTKDMINVKRFQKTLYVEEVVPNVIEPSFGLGRIMYTVFEHTFHVREGDEQRTFFSFPAVVAPFKCSVLPLSQNQEFMPFVKELSEALTRHGVSHKVDDSSGSIGRRYARTDEIGVAFGVTIDFDTVNKTPHTATLRDRDSMRQIRAEISELPSIVQDLANGNITWADVEARYPLFEGQETGKKETIEE
B4: threonyl tRNA synthetase: autoantigen in autoimmune myositis (protein)
chain: MFEEKASSPSGKMGGEEKPIGAGEEKQKEGGKKKNKEGSGDGGRAELNPWPEYIYTRLEMYNILKAEHDSILAEKAEKDSKPIKVTLPDGKQVDAESWKTTPYQIACGISQGLADNTVIAKVNNVVWDLDRPLEEDCTLELLKFEDEEAQAVYWHSSAHIMGEAMERVYGGCLCYGPPIENGFYYDMYLEEGGVSSNDFSSLEALCKKIIKEKQAFERLEVKKETLLAMFKYNKFKCRILNEKVNTPTTTVYRCGPLIDLCRGPHVRHTGKIKALKIHKNSSTYWEGKADMETLQRIYGISFPDPKMLKEWEKFQEEAKNRDHRKIGRDQELYFFHELSPGSCFFLPKGAYIYNALIEFIRSEYRKRGFQEVVTPNIFNSRLWMTSGHWQHYSENMFSFEVEKELFALKPMNCPGHCLMFDHRPRSWRELPLRLADFGVLHRNELSGALTGLTRVRRFQQDDAHIFCAMEQIEDEIKGCLDFLRTVYSVFGFSFKLNLSTRPEKFLGDIEVWDQAEKQLENSLNEFGEKWELNSGDGAFYGPKIDIQIKDAIGRYHQCATIQLDFQLPIRFNLTYVSHDGDDKKRPVIVHRAILGSVERMIAILTENYGGKWPFWLSPRQVMVVPVGPTCDEYAQKVRQQFHDAKFMADIDLDPGCTLNKKIRNAQLAQYNFILVVGEKEKISGTVNIRTRDNKVHGERTISETIERLQQLKEFRSKQAEEEF
B5: Histidyl tRNA synthetase (Jo-1): autoantigen targeted in autoimmune myositis (protein)
chain: AERAALEELVKLQGERVRGLKQQKASAELIEEEVAKLLKLKAQLGPDESKQKFVLKTPKGTRDYSPRQMAVREKVFDVIIRCFKRHGAEVIDTPVFELKETLMGKYGEDSKLIYDLKDQGGELLSLRYDLTVPFARYLAMNKLTNIKRYHIAKVYRRDNPAMTRGRYREFYQCDFDIAGNFDPMIPDAECLKIMCEILSSLQIGDFLVKVNDRRILDGMFAICGVSDSKFRTICSSVDKLDKVSWEEVKNEMVGEKGLAPEVADRIGDYVQQHGGVSLVEQLLQDPKLSQNKQALEGLGDLKLLFEYLTLFGIDDKISFDLSLARGLDYYTGVIYEAVLLQTPAQAGEEPLGVGSVAAGGRYDGLVGMFDPKGRKVPCVGLSIGVERIFSIVEQRLEALEEKIRTTETQVLVASAQKKLLEERLKLVSELWDAGIKAELLYKKNPKLLNQLQYCEEAGIPLVAIIGEQELKDGVIKLRSVTSREEVDVRREDLVEEIKRRTGQPLCIC

Each molecule was assayed against T1, granzyme B (Homo sapiens, UniProt P10144) (assay: Susceptibility of autoantigens to cleavage by purified granzyme B (HeLa lysate immunoblot or immunoprecipitates)). Conditions: in vitro.
T1 construct: Some of these preparations were used for the further purification of granzyme B (Tschopp, 1994); endogenous in cells; host or cells: YT cells (human NK cell line), cytoplasmic granules
T1 sequence (P10144 21-247): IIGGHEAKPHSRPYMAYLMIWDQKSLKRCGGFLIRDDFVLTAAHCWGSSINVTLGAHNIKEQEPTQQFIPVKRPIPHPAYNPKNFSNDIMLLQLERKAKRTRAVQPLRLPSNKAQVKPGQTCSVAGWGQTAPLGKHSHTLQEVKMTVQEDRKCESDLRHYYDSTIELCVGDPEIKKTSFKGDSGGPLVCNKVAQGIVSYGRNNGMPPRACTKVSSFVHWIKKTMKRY
Format: biochemical
Method: To determine whether susceptibility to direct cleavage by granzyme B was an isolated feature of PARP, NuMA and DNA-PKcs shown above, or whether it was a more general feature of autoantigens, a variety of well-defined autoantigens selected from across the spectrum of systemic autoimmune diseases were tested for susceptibility to cleavage by purified granzyume B. The efficiency of cleavage of the substrates by purified granzyme B was also noted (Table 3). Initially, a series of autoantibodies of well-defined specificity were used to immunoblot lysates of HeLa cells that had been incubated in vitro with or without granzyme B. Lysates were pre-treated with iodoacetamide (IAA) to prevent interference by endogenous caspase activity.
To perform these studies, HeLa cells were radiolabeled with [^35S] methionine/cysteine, and proteins were immunoprecipitated using human autoantibodies. Protein A-agarose beads containing washed precipitated proteins were resuspended in buffer supporting the activity of granzyme B, and incubated in the absence or presence of added purified granzyme B. Reaction products were visualized using SDS-PAGE and fluorography. To confirm the validity of this approach, several different autoantigens known to be cleaved by granzyme B, as well as several autoantigens and non-autoantigens that are not cleaved by granzyme B, were tested. Using autoantibodies that both immunoblot and immunprecipitate, the cleavage profiles obtained using granzyme B to cleave molecules in lysates (followed by detection with immunoblotting), and after immunoprecipitation (from [^35S]methionine-labeled HeLa lysate) were compared. Identical results were obtained using these 2 methods for cleaved autoantigens (topoisomerase-1, Mi-2, RNA polymerase II large subunit, Ku-70, PARP, and NOR-90), uncleaved autoantigens (Ku-80, Ro 60k), and control substrates (β-tubulin, vinculin). […] Of note, all these additional autoantigens (with the exception of RNA polymerase I) are targeted in autoimmune myositis. However, two other tRNA synthetases (threonyl tRNA synthetase and glycyl tRNA synthetase) that are also autoantigens in autoimmune myositis, were not cleaved using this approach.
With B1 the “susceptibility to cleavage by granzyme B” value was “cleaved”. For B2, the “susceptibility to cleavage by granzyme B” value was “cleaved”. B3 was tested, and the “susceptibility to cleavage by granzyme B” value was “not cleaved”. With B4 the “susceptibility to cleavage by granzyme B” value was “not cleaved”. With B5 the “susceptibility to cleavage by granzyme B” value was “cleaved”.
